Columns and labels:
M1 macrophages = experiment: Caspase-3/7 induction, IncuCyte, M1; type: cell-based, human; conditions: over 6 days, BYbe 250-2 nM, Camptothecin, Staurosporine 5 μM
Protocol: Human PBMC derived from blood leukocyte platelet-apheresis cones (NHSBT Oxford) were banked as frozen aliquots. Prior to an assay being performed, 2 vials of frozen cells, each containing 5×10^7 cells in 1 ml, were thawed in a 37° C. water bath and then added to 50 ml complete media (RPMI 1640+2 mM GlutaMAX+1% Pen/Strep, all previous supplied by Invitrogen, +10% Fetal Bovine Serum (FBS), Sigma Aldrich). Cells were spun (500 g, 5 min, at RT) and re-suspended in 30 ml complete media to wash and spun again. Cells were resuspended in 20 ml MACS buffer (PBS, pH 7.2, 0.5% bovine serum albumin (BSA), and 2 mM EDTA, Sigma Aldrich) and counted on a ChemoMetec NucleoCounter NC-3000 to determine concentration and viability. PBMCs from one donor (UCB-Cones 802) was used in this assay. Monocyte isolation was performed using the Pan Monocyte Isolation Kit (Miltenyi Biotec, cat no. 130-096-537) and LS columns (Miltenyi Biotec, cat no 130-042-401) according to manufacturer's instructions. 100 μl of cells were removed and stored on ice to check monocyte purity post isolation. Isolated cells were stained with BV421 mouse anti-human CD14 (BD Biosciences, cat no. 563743) to check for purity of monocytes using FACS. M-CSF (Sigma Aldrich, cat no. SRP3110) and GM-CSF (R&D Systems, cat no. 215-GM/CF) were prepared at 100 μg/ml. Cells were prepared in M1 media (complete media+50 ng/ml GM-CSF) or M2 media (complete media+50 ng/ml M-CSF) at a concentration of 2.5×10^5 cells/ml. 200 μl cells were plated into two Corning 96 well Black polystyrene microplates (Sigma Aldrich) and incubated at 37° C., 5% CO2. Following a 3-day incubation at 37° C., 5% CO2, the plate was spun (500 g, 5 min, RT), buffer was aspirated, the cells were washed once with PBS and then resuspended in 200 μL of M1 media or M2 media. […] The caspase dye was measured with the green laser (350 ms) and the cytotox dye was measured with a red laser (650 ms). The green dye signal was analysed using Incucyte® Zoom2016B. […]

CD45 ECD = molecular target: T1, CD45 ECD (Homo sapiens, UniProt P08575); experiment: Mass photometry of mixture of CD45 ECD and BYbe; type: binding; conditions: for Theoretical mass (kDa): based on observed masses of 62 and 76 kDa
T1 construct: extracellular domain of CD45 (UniProtKB—P08575, residue positions 225-573); TEV cleavage site (C); 10-His tag (C); made in house; host or cells: HEK293
T1 sequence (P08575 225-573): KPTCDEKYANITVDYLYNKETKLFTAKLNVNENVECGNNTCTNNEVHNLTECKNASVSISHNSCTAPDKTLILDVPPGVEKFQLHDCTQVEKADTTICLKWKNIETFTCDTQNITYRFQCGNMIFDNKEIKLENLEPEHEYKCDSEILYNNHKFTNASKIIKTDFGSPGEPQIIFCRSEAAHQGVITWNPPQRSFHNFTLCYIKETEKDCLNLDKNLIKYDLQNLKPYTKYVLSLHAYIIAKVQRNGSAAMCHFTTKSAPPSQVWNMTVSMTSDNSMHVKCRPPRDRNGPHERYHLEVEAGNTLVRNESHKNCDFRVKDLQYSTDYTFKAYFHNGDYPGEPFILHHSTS
Protocol: Data were acquired on a RefeynOneMP mass photometer (Refeyn Ltd, Oxford, UK) using AcquireMP (Refeyn Ltd, v2.2.1) software and images were processed and analysed using DiscoverMP (v2.3.dev12) software.
Measurements were performed using clean glass coverslips (High Precision coverslips, No. 1.5, 24×50 mm, Marienfeld) mounted with silicon gaskets (CultureWell™ Reusable Gaskets, Grace biolabs) cut in to 2×2 well sections. Protein stocks were diluted directly in Dulbecco's Phosphate-Buffered Saline (DPBS, ThermoFisher). Typical working concentrations of protein complexes were 1-100 nM, depending on the dissociation characteristics of the protein complexes.
The instrument lens was cleaned with Iso-propyl alcohol (IPA), allowed to dry and a drop of Olympus Low Auto Fluorescence Immersion Oil (NC0297589, ThermoFisher) placed on the lens prior to positioning the microscope coverslip with sample in the light stage. To find focus, 15 μl of fresh DPBS was pipetted into a silicone well, the focal position was identified and secured in place with an autofocus system based on total internal reflection for the entire measurement. For each acquisition, 5 μl of diluted protein was introduced into the well, mixed thoroughly (before autofocus stabilization), and movies of 90 s duration recorded. Each sample was measured once, with a new well and buffer used for each measurement. The mixture of CD45 ECD and 4133-6294 BYbe was not pre-incubated and therefore complexing occurred when the 2 proteins were added into the well.

- Observed mass (kDa) (CD45 ECD; 1× (CD45 + BYbe) complex in mixture of CD45 ECD and 4133-6294 BYbe): 136 kDa
- Theoretical mass (kDa) (CD45 ECD; 1× (CD45 + BYbe)): 138 kDa
- Observed mass (kDa) (CD45 ECD; 2× (CD45 + BYbe) complex in mixture of CD45 ECD and 4133-6294 BYbe): 274 kDa
- Theoretical mass (kDa) (CD45 ECD; 2× (CD45 + BYbe)): 276 kDa
- Observed mass (kDa) (CD45 ECD; 3× (CD45 + BYbe) complex in mixture of CD45 ECD and 4133-6294 BYbe): 415 kDa
- Theoretical mass (kDa) (CD45 ECD; 3× (CD45 + BYbe)): 414 kDa
- Observed mass (kDa) (CD45 ECD; 4× (CD45 + BYbe) complex in mixture of CD45 ECD and 4133-6294 BYbe): 555 kDa
- Theoretical mass (kDa) (CD45 ECD; 4× (CD45 + BYbe)): 552 kDa
B1: 4133-6294 BYbe: anti-CD45 BYbe (Fab-scFv): 4133 Fab HC-G4S linker-6294 scFv heavy chain paired with 4133 light chain (antibody)
heavy: QEQLVESGGGLVQPEGSLTLTCTASGFSFSGNYYMCWVRQAPGKGLEWIGCLYTGSSGSTYYASWAKGRFTISKTSSTTVTLQMTSLTAADTATYFCARDLGYEIDGYGGLWGQGTLVTVSSGQPKAPSVFPLAPCCGDTPSSTVTLGCLVKGYLPEPVTVTWNSGTLTNGVRTFPSVRQSSGLYSLSSVVSVTSSSQPVTCNVAHPATNTKVDKTVAPSTCSKPGGGGSGGGGSEVQLVESGAELARPGASVKMSCKASGYTFTSYTMHWVKQRPGQCLEWIGYINPSSGYTEYNQKFKDKTTLTADKSSSTAYLQLSSLTSEDSAVYYCARVGDGFYPSWLAYWGQGTLVTVSSGGGGSGGGGSGGGGSGGGGSDIQMTQSPKFLLVSAGDRVTITCKASQSVRNDVAWYQQKPGQSPKLLIFYASKRYTGVPDRFTGSGYGTDFTFTISTVQAEDLAVYFCQQDYSSPTTFGCGTKLEIK
light: AQVLTQTPSPVSAVVGGTVSISCQASQSVYNNNNLSWYQQKPGQPPKLLIYDASKLASGVPSRFKGSGSGTQFTLTISGVQCDDAATYYCLGGYYSSGWYFAFGGGTKVVVKRTPVAPTVLIFPPAADQVATGTVTIVCVANKYFPDVTVTWEVDGTTQTTGIENSKTPQNSADCTYNLSSTLTLTSTQYNSHKEYTCKVTQGTTSVVQSFNRGDC
- levels of Caspase-3/7 (M1 macrophages): in-line with NegCtrl BYbe-treated and untreated macrophages
